{"source": "patent US20070178499", "origin": "cited, not measured here", "key": {"[1]": {"tested_on": "Aart(S) 6-finger (artificial)", "details": "CITED?; affinity stated without method"}, "[2]": {"tested_on": "E2C(S) 6-finger (artificial)", "details": "CITED (Beerli 2000)"}}, "data": [{"substance": "Aart 18-bp target site", "values": [{"measurement": "Kd", "setting": "[1]", "value": 7.5, "unit": "pM"}]}, {"substance": "E3 site of erbB-3", "values": [{"measurement": "binding signal (fold loss in affinity vs n8)", "setting": "[2]", "value": 15}]}]}
